# B1: Transcriptional activator GLI3 (Homo sapiens), P10071 (parent)
# chain: MEAQSHSSTTTEKKKVENSIVKCSTRTDVSEKAVASSTTSNEDESPGQTYHRERRNAITMQPQNVQGLSKVSEEPSTSSDERASLIKKEIHGSLPHVAEPSVPYRGTVFAMDPRNGYMEPHYHPPHLFPAFHPPVPIDARHHEGRYHYDPSPIPPLHMTSALSSSPTYPDLPFIRISPHRNPTAASESPFSPPHPYINPYMDYIRSLHSSPSLSMISATRGLSPTDAPHAGVSPAEYYHQMALLTGQRSPYADIIPSAATAGTGAIHMEYLHAMDSTRFSSPRLSARPSRKRTLSISPLSDHSFDLQTMIRTSPNSLVTILNNSRSSSSASGSYGHLSASAISPALSFTYSSAPVSLHMHQQILSRQQSLGSAFGHSPPLIHPAPTFPTQRPIPGIPTVLNPVQVSSGPSESSQNKPTSESAVSSTGDPMHNKRSKIKPDEDLPSPGARGQQEQPEGTTLVKEEGDKDESKQEPEVIYETNCHWEGCAREFDTQEQLVHHINNDHIHGEKKEFVCRWLDCSREQKPFKAQYMLVVHMRRHTGEKPHKCTFEGCTKAYSRLENLKTHLRSHTGEKPYVCEHEGCNKAFSNASDRAKHQNRTHSNEKPYVCKIPGCTKRYTDPSSLRKHVKTVHGPEAHVTKKQRGDIHPRPPPPRDSGSHSQSRSPGRPTQGALGEQQDLSNTTSKREECLQVKTVKAEKPMTSQPSPGGQSSCSSQQSPISNYSNSGLELPLTDGGSIGDLSAIDETPIMDSTISTATTALALQARRNPAGTKWMEHVKLERLKQVNGMFPRLNPILPPKAPAVSPLIGNGTQSNNTCSLGGPMTLLPGRSDLSGVDVTMLNMLNRRDSSASTISSAYLSSRRSSGISPCFSSRRSSEASQAEGRPQNVSVADSYDPISTDASRRSSEASQSDGLPSLLSLTPAQQYRLKAKYAAATGGPPPTPLPNMERMSLKTRLALLGDALEPGVALPPVHAPRRCSDGGAHGYGRRHLQPHDAPGHGVRRASDPVRTGSEGLALPRVPRFSSLSSCNPPAMATSAEKRSLVLQNYTRPEGGQSRNFHSSPCPPSITENVTLESLTMDADANLNDEDFLPDDVVQYLNSQNQAGYEQHFPSALPDDSKVPHGPGDFDAPGLPDSHAGQQFHALEQPCPEGSKTDLPIQWNEVSSGSADLSSSKLKCGPRPAVPQTRAFGFCNGMVVHPQNPLRSGPAGGYQTLGENSNPYGGPEHLMLHNSPGSGTSGNAFHEQPCKAPQYGNCLNRQPVAPGALDGACGAGIQASKLKSTPMQGSGGQLNFGLPVAPNESAGSMVNGMQNQDPVGQGYLAHQLLGDSMQHPGAGRPGQQMLGQISATSHINIYQGPESCLPGAHGMGSQPSSLAVVRGYQPCASFGGSRRQAMPRDSLALQSGQLSDTSQTCRVNGIKMEMKGQPHPLCSNLQNYSGQFYDQTVGFSQQDTKAGSFSISDASCLLQGTSAKNSELLSPGANQVTSTVDSLDSHDLEGVQIDFDAIIDDGDHSSLMSGALSPSIIQNLSHSSSRLTTPRASLPFPALSMSTTNMAIGDMSSLLTSLAEESKFLAVMQ
# partner: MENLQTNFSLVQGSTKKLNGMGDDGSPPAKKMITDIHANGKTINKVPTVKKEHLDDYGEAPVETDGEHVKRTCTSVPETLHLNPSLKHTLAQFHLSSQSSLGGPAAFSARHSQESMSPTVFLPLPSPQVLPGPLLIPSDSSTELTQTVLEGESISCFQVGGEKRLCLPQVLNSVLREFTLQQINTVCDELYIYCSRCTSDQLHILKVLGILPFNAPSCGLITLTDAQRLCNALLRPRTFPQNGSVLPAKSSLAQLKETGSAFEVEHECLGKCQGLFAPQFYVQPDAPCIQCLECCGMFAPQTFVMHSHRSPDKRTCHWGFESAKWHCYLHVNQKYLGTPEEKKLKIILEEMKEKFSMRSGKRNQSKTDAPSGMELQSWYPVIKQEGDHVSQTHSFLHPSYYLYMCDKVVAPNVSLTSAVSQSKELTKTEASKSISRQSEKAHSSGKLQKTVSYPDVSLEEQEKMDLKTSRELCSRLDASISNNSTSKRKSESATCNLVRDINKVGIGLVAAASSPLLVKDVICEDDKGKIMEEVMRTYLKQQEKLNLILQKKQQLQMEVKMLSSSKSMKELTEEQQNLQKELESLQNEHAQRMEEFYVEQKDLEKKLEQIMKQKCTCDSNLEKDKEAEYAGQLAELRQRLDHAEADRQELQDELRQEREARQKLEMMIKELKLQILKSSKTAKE
# Variants of: B1
# Conditions: with skil_human SKIL
row,Variant,effect of a mutation on the interaction
1,M111T,decreasing interaction strength

# Source: IntAct's records for PubMed 24819706
